Test results: US12352767B2, “Method of treating cognitive decline associated with neurological diseases based on a decrease in FLT4 expression or activity” (University of Virginia Patent Foundation, priority 2018, dated 2025)
Positions count from the first letter of the chain named. Names may count otherwise. “Also recorded” adds a separate entry of the source.

B1: VEGF-C: recombinant human VEGF-C (PeproTech) encapsulated in hyaluronic acid/methylcellulose hydrogel for transcranial delivery (protein, UniProt P49767 112-227, looked up)
Vascular endothelial growth …: AHYNTEILKSIDNEWRKTQCMPREVCIDVGKEFGVATNTFFKPPCVSVYRCGGCCNSEGLQCMNTSTSYLSKTLFEITVPLSQGPKPVTISFANHTSCRCMSKLDVYRQVHSIIRR
modifications: in hyaluronic acid/methylcellulose hydrogel
notes: recombinant human VEGF-C (PeproTech) encapsulated in hyaluronic acid/methylcellulose hydrogel for transcranial delivery
B2: VEGF-C156S: mutant VEGF-C protein that binds specifically to VEGFR3, delivered in hydrogel transcranially (protein, UniProt P49767 112-227, looked up, variant C156S)
Vascular endothelial growth …: B1 Vascular endothelial growth … with C45S
modifications: delivered in hydrogel

Experiments:
brain parenchyma = assay: Brain perfusion/influx by CSF tracer OVA-A647 (brain sections); assay type: in vivo, mice; conditions: old mice
Procedure: (§1) Mice were anaesthetized by intraperitoneal (i.p.) injection of a mixed solution of ketamine (100 mg/Kg) and xylazine (10 mg/Kg) in saline. The skin of the neck was shaved and cleaned with iodine and 70% ethanol, ophthalmic solution placed on the eyes to prevent drying and the mouse's head was secured in a stereotaxic frame. After making a skin incision, the muscle layers were retracted and the cisterna magna exposed. Using a Hamilton syringe (coupled to a 33-gauge needle), the volume of the desired tracer solution was injected into the CSF-filled cisterna magna compartment. For brain CSF influx and lymphatic drainage experiments, 2 or 5 μL of Alexa Fluor® 594 or 647 conjugated OVA (Thermo Fisher Scientific), at 0.5 mg/mL in artificial CSF (#597316, Harvard Apparatus U.K.), were injected at a rate of 2.5 μL/min. After injecting, the syringe was left in place for additional 2 min to prevent back-flow of CSF.

[1] = tested on: meningeal lymphatic drainage; assay: Drainage of CSF tracer (OVA-A647) into deep cervical lymph nodes; assay type: in vivo, mice
Procedure: as §1

[2] = tested on: meningeal lymphatic vessels; conditions: recombinant VEGF-C, previously shown (ref. 4); cited from earlier work
[3] = tested on: meningeal lymphatic vessels; assay: Meningeal whole-mount immunostaining (LYVE-1/CD31): lymphatic vessel area and diameter, blood vessel coverage
Procedure: Selective ablation of the meningeal lymphatic vessels was achieved by i.c.m. injection and transcranial photoconversion of Visudyne® (verteporfin for injection, Valeant Ophtalmics). Visudyne was reconstituted following manufacturer instructions and 5 μL was injected i.c.m. following the previously described procedure. […] Each spot was irradiated with a light dose of 50 J/cm^2 at an intensity of 600 mW/cm^2 for a total of 83 s. Controls were injected with the same volume of Visudyne (without the photoconversion step) or sterile saline plus photoconversion (vehicle/photoconversion). The scalp skin was then sutured, the mice were subcutaneously injected with ketoprofen (2 mg/Kg) and allowed to recover on a heating pad until fully awake.
A hydrogel of 1.4% hyaluronic acid and 3% methylcellulose alone (vehicle) or with 200 ng/mL of encapsulated human VEGF-C (PeproTech) or VEGF-C156S (R&D Systems) was prepared as described elsewhere^49. Briefly, lyophilized, sterile methylcellulose (4000 cP, Sigma-Aldrich) and sterile hyaluronic acid (1500-1800 kDa, Sigma-Aldrich) were sequentially dissolved in sterile 0.1 M phosphate buffered saline (PBS) at 4° C. overnight. Lyophilized VEGF-C or VEGF-C156S were resuspended as particulate at 2000 ng/mL in 0.5% sterile methylcellulose in PBS. The particulate solution, or vehicle 0.5% methylcellulose, was mixed into the hydrogel pre-solution at 1:10, and loaded into a syringe for gelation at 37° C. […] The hydrogels were prepared on the day of the experiment and kept warm inside the individual syringes until applied onto the mouse's skull. […] An incision was made in the scalp skin and the skull was thinned at the junction of all sinuses and above the transverse sinus. The shear-thinning properties of the polymers allowed the extrusion of 100 μL of each hydrogel solution from the syringe into the thinned skull surface. The scalp skin was then sutured on top of the solidified hydrogel, the mice were subcutaneously injected with ketoprofen (2 mg/Kg) and allowed to recover on a heating pad until fully awake.
Mice were given a lethal dose of anesthetics by intraperitoneal (i.p.) injection of Euthasol (10% v/v in saline). When needed, CSF was collected from the cisterna magna using a 0.5 mm diameter borosilicate glass pipette with internal filament and immediately stored at −80° C. Mice were then transcardially perfused with ice cold PBS with heparin (10 U/mL). Deep cervical lymph nodes were dissected and drop fixed in 4% paraformaldehyde (PFA) for 12 hours at 4° C. After stripping the skin and muscle from the bone the head was collected and drop fixed in 4% PFA. […] The brains were kept in 4% PFA for additional 24 hours (48 hours in total). […]

VEGFR3 = VEGFR3 (Homo sapiens, UniProt P35916); conditions: VEGFR3 vs VEGFR2 (refs. 34, 36); cited from earlier work
VEGFR3, sequence (P35916 25-1363, species assumed): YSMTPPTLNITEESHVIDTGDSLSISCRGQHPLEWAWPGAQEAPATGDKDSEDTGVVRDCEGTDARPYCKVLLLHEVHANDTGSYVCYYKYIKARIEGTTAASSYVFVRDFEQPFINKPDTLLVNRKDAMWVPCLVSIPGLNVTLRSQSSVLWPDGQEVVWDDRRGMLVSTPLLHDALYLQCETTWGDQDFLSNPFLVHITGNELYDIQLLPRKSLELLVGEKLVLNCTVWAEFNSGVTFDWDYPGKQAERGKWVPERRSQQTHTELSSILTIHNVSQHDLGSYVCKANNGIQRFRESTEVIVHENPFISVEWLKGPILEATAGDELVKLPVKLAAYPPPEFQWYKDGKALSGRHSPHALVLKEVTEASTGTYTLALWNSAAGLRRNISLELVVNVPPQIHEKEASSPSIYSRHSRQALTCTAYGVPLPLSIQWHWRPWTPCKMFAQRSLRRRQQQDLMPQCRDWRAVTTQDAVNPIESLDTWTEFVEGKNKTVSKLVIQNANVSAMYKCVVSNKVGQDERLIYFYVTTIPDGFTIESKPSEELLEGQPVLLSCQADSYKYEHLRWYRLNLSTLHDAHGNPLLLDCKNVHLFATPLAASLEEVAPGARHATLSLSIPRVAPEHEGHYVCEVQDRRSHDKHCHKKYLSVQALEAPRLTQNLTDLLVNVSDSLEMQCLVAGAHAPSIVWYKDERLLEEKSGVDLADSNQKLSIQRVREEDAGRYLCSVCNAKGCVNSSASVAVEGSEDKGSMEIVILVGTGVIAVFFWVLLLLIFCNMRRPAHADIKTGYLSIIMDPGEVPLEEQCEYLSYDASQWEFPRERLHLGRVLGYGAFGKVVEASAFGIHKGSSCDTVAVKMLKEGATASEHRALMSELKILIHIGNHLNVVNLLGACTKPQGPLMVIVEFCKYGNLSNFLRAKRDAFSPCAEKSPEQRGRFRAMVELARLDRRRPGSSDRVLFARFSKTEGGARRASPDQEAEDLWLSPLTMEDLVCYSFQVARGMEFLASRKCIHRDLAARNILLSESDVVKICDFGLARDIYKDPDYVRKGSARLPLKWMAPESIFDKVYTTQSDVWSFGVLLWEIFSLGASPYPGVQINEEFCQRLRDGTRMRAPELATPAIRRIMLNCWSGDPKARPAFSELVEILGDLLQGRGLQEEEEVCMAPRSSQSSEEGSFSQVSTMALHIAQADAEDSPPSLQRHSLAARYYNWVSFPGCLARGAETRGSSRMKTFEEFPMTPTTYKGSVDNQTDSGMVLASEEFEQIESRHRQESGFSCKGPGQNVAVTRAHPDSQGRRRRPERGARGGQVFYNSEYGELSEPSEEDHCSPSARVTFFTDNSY

Row | Molecule | brain perfusion by CSF macromolecules (OVA-A647 influx) (brain parenchyma; transcranial hydrogel VEGF-C) | meningeal lymphatic function (OVA-A647 drainage into dCLNs) ([1]; old mice, transcranial hydrogel VEGF-C vs vehicle) | meningeal lymphatic function (OVA-A647 drainage into dCLNs) ([1]; young-adult mice, transcranial hydrogel VEGF-C) | diameter of meningeal lymphatic vessels [2] | meningeal lymphatic vessel diameter (superior sagittal sinus) ([3]; young/adult (3 months) and old (20-24 months) mice, hydrogel VEGF-C 200 ng/mL transcranial, 4 weeks, vs vehicle) | paravascular influx of tracer into the brain (OVA-A647 area fraction) (brain parenchyma; transcranial VEGF-C156S) | drainage of tracer from the CSF (OVA-A647 area fraction in dCLNs) ([1]; old mice, transcranial VEGF-C156S vs vehicle) | receptor binding specificity (VEGFR3) | meningeal lymphatic diameter (LYVE-1+ vessels, superior sagittal sinus) ([3]; old mice, hydrogel VEGF-C156S 200 ng/mL transcranial vs vehicle)
1 | B1 | enhanced brain perfusion; also recorded: significantly increased | significant increase; also recorded: increased drainage | did not respond | increases the diameter | increased diameter; also recorded: significant increase | – | – | – | –
2 | B2 | – | – | – | – | – | significant increase | significant increase | binds specifically to VEGFR3 and spares its effects on VEGFR2 | significant increase; also recorded: increased diameter
